Assay results published in patent US20250197451A1 (CAPITAL MEDICAL UNIVERSITY SCHOOL OF STOMATOLOGY, published 2025).

Molecular target: T1, biotin-labelled EZH2 protein (UniProt Q15910 1-746, limits assumed, biotin label (EZ-link NHS-PEO4-Biotinylation kit))
T1 construct: Probe in solution (1 ug/ml) on the KDM2B peptide microarray; also called NHS-PEO4-Biotinylation-labelled EZH2 protein; recombinant protein
Assay: KDM2B peptide array probed with biotin-EZH2 1 ug/ml, SA-HRP/ECL; Remark: noise
Protocol: (§1) After blocking, the polypeptide microarray was incubated with biotin-labeled target protein for hybridization, visualized with the chemical chromogenic substrate and imaged using a Chempchemi digital imager. The image of colored polypeptide microarray was analyzed for the optical density of the colored points. Particularly, the optical density of each colored point was calculated using the optical density of the respective surrounding background as a reference for background correction. The highest optical density value of the colored point on membrane was set to 100%, and the optical density value of the remaining colored points was converted into percentages relative to the highest value. The points with an optical density percentage of more than 30% on the polypeptide membrane and also with an optical density percentage of less than 30% on the negative membrane were defined as positive colored points.
(§2) For the hybridization experiment, a solution of NHS-PEO4-Biotinylation-labelled EZH2 protein (1 μg/ml) was used for the hybridization of the polypeptide microarray. Streptavidin-HRP was used to amplify the reaction signal according to the experimental procedure and conditions described above, and the time of color development was 5 minutes.

T1 sequence (Q15910 whole entry): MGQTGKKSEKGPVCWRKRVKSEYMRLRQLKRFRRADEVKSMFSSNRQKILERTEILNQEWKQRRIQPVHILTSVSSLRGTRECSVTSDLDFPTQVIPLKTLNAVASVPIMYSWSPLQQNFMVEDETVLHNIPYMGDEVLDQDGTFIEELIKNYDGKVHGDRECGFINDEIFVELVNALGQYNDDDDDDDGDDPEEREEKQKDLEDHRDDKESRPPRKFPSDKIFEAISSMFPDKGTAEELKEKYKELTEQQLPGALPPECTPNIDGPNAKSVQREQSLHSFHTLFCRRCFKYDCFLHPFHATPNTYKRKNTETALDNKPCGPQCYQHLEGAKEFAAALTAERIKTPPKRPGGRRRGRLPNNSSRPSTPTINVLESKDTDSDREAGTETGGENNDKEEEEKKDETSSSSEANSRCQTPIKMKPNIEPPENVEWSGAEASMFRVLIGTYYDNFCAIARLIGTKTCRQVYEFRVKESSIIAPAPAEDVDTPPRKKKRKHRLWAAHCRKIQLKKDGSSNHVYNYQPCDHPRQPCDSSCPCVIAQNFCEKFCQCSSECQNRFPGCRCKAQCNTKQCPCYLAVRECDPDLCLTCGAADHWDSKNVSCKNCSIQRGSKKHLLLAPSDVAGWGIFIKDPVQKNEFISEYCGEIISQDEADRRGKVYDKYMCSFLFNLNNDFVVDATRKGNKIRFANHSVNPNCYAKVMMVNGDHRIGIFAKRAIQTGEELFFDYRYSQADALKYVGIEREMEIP

Row | Intensity (%) | Binder
1 | 0% | ESEESVKSTTLAVDY [peptide 96]
2 | 0% | PKTPTGSPATEVSAK [peptide 99]

Molecular target: T1, biotin-labelled EZH2 protein
Assay: KDM2B peptide array probed with biotin-EZH2 1 ug/ml, SA-HRP/ECL;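 on Intensity (%): Background-corrected optical density of each spot on the membrane, given as percent of the brightest spot (100%), color developed for 5 minutes; 100% is the highest background-corrected spot optical density on the membrane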
Protocol: as §1, §2

Row | binding result | Binder
3 | no binding | EEEACDQQPQEEEEK [peptide 83]
4 | no binding | DQQPQEEEEKDEEGE [peptide 84]

Molecular target: T1, biotin-labelled EZH2 protein
Assay: KDM2B peptide array probed with biotin-EZH2 1 ug/ml, SA-HRP/ECL; Remark: spike
Protocol: as §1, §2

Row | Binder | Intensity (%)
5 | VYTPVDSLVFGGNIL [peptide 64] | 0%
6 | SNLPGSLLKEQKMNR [peptide 149] | 0%
7 | DSLVFGGNILHSFNV [peptide 65] | 0%
8 | EDTVEEEEGKFNLML [peptide 135] | 0%

Now from value to binder:

Row | Intensity (%) | Binder
9 | 0% | RRSECEEAPRRRSDE [peptide 154]
10 | 0% | SLLKEQKMNRDNKEG [peptide 150]
11 | 0% | DDVHLRKKRKYEKPQ [peptide 160]

Molecular target: T1, biotin-labelled EZH2 protein
Assay: KDM2B peptide array probed with biotin-EZH2 1 ug/ml, SA-HRP/ECL;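 on Intensity (%): Background-corrected optical density of each spot on the membrane, given as percent of the brightest spot (100%), color developed for 5 minutes; 100% is the highest background-corrected spot optical density on the membrane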
Remark: another data set of the same source
Protocol: as §1, §2

Row | Intensity (%) | Binder
12 | 0% | EEEACDQQPQEEEEK [peptide 83]
13 | 0% | DQQPQEEEEKDEEGE [peptide 84]
